The assay has as its target wild-type E. coli core RNA polymerase (E. coli, UniProt P0A8T7 1-1407; P0A8V2 1-1342; P0A7Z4 1-329; P0A800 1-91). In words: fluorescence polarisation. Background: Fluorescence polarisation rises when a labelled molecule tumbles more slowly, as on binding a larger partner.

The Kd is a measure of binding affinity in units of concentration. Read a low Kd as a tighter complex.

Sequence of wild-type E. coli core RNA polymerase (P0A8T7 whole entry, chain 1 of 4): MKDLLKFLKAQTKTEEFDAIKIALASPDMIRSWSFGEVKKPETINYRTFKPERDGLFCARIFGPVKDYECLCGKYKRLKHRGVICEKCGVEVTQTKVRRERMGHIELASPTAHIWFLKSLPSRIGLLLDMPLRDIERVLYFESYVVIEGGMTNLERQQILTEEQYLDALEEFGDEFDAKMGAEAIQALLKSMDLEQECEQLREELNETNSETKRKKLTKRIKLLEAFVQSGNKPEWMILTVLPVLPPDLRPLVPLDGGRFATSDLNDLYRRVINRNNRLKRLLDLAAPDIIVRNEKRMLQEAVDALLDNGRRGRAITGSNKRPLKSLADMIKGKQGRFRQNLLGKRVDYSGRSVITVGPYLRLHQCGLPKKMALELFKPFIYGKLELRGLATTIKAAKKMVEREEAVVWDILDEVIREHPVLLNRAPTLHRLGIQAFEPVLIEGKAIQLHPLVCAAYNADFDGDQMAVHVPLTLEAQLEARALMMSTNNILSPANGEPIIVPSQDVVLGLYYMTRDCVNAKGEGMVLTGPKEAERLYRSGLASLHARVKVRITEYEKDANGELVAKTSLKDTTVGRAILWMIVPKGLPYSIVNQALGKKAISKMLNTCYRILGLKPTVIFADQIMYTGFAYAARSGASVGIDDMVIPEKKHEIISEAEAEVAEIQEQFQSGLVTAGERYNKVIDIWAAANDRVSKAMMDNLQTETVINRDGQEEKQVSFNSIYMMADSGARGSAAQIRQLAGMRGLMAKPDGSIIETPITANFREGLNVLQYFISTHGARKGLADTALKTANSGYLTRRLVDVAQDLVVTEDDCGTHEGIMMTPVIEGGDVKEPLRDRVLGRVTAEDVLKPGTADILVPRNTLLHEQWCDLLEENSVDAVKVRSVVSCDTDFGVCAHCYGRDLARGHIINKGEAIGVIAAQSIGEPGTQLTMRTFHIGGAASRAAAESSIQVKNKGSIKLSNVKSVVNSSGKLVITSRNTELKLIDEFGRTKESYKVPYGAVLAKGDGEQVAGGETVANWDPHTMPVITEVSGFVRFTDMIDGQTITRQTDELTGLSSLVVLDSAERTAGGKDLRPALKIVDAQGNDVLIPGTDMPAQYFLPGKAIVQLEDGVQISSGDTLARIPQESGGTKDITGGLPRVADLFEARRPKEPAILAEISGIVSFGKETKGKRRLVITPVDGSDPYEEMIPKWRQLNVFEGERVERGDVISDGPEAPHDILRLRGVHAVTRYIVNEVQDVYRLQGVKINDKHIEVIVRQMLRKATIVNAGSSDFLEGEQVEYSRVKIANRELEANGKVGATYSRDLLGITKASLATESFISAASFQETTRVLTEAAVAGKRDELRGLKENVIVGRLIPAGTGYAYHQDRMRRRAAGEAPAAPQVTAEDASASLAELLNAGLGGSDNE
Sequence of wild-type E. coli core RNA polymerase (P0A8V2 whole entry, chain 2 of 4): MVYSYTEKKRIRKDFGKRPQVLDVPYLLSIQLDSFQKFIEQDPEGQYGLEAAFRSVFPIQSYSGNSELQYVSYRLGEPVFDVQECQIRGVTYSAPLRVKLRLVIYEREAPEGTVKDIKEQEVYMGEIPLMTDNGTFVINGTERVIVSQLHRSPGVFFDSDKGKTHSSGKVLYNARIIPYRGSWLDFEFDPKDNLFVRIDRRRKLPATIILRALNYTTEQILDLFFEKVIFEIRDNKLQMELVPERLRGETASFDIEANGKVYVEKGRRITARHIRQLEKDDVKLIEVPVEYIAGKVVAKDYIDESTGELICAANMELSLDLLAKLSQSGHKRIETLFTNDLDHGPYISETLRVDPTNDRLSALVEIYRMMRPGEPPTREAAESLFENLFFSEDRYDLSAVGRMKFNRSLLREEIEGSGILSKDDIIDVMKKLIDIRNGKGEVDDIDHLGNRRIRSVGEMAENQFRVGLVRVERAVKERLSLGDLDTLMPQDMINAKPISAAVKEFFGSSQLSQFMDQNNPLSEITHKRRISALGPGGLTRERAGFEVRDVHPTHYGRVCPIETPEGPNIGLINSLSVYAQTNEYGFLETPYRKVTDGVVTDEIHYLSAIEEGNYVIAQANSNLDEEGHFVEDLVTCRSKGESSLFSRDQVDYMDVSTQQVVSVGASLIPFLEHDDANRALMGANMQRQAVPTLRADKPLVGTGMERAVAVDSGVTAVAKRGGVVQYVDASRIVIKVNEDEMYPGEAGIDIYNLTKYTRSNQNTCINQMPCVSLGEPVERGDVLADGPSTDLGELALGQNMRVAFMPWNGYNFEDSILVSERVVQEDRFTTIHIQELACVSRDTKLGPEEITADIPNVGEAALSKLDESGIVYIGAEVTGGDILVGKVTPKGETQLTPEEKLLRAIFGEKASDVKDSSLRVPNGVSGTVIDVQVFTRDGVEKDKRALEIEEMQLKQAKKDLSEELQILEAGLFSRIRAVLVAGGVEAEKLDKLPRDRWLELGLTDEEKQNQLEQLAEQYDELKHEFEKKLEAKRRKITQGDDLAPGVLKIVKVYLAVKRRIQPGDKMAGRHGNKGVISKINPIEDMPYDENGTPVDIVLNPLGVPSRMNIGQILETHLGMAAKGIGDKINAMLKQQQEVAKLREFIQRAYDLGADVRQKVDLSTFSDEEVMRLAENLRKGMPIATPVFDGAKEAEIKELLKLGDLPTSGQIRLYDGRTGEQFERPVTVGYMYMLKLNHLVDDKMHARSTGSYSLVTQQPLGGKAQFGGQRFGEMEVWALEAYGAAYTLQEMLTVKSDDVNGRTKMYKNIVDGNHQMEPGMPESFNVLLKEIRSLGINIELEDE
Sequence of wild-type E. coli core RNA polymerase (P0A7Z4 whole entry, chain 3 of 4): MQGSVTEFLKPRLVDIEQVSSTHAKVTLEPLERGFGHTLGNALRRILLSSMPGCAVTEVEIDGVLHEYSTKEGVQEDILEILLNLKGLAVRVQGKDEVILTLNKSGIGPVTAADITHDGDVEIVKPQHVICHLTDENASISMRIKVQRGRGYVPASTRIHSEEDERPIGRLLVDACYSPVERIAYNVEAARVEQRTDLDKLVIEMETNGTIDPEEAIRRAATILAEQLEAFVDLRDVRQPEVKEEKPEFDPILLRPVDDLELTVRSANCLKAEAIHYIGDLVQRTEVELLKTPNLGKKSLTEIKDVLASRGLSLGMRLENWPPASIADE
Sequence of wild-type E. coli core RNA polymerase (P0A800 whole entry, chain 4 of 4): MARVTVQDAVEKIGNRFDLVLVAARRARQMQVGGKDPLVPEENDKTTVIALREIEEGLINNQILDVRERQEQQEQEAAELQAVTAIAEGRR

B1: DksA^A35C labeled with Alexa Fluor 546 maleimide (natural protein, Escherichia coli, UniProt P0ABS1 1-151, looked up)
chain: MQEGQNRKTSSLSILAIAGVEPYQEKPGEEYMNECQLAHFRRILEAWRNQLRDEVDRTVTHMQDEAANFPDPVDRAAQEEEFSLELRNRDRERKLIKKIEKTLKKVEDEDFGYCESCGVEIGIRRLEARPTADLCIDCKTLAEIREKQMAG
modifications: labeled with Alexa Fluor 546 maleimide (labeling efficiency 60-100%)
The molecule B1 yielded an equilibrium dissociation constant (Kd) of 102 ± 13 nM.

The record behind these values is publication PMC3333854 (Nucleic Acids Research, 2011).
